In data set [1] the test system is FoxP1 FKH domain (human). Kind of data set: fluorescence anisotropy. The settings on record: 200 nM labeled DNA, protein 0-500 nM; 'standard buffer' (composition, salt and pH not in material); dimerization assays at 37 C, DNA-binding temperature not stated; ex 480 nm, em 525 nm.
Data set [2] concerns FoxP1 ZIP-lin-FKH (human). Kind of data set: fluorescence anisotropy. Conditions: 200 nM labeled DNA, protein 0-500 nM; 'standard buffer' (composition, salt and pH not in material); dimerization assays at 37 C, DNA-binding temperature not stated; ex 480 nm, em 525 nm.
For data set [3], the target named is FoxP1 ZIP-lin (leucine zipper domain with the linker, residues 342-462), unlabeled wild type (human) (UniProt Q9H334). As to the kind of experiment: SEC; Superdex 75 increase, 20 mM HEPES pH 7.8, 150 mM NaCl; unlabeled protein at 10 µM; molecular weight from a calibration curve with known proteins.
Data set [4] concerns the target FoxP1 ZIP(A356C)-lin labeled with BODIPY FL (human) (UniProt Q9H334). Kind of data set: fluorescence polarisation; fluorescence anisotropy; 5 nM BODIPY FL-labeled single-cysteine protein titrated with its unlabeled wild-type construct (0-5000 nM ZIP-lin, 0-200 nM ZIP-lin-FKH), 37 °C; two-state model, monomer-dimer equilibrium; duplicates.
Data set [5] has as its target FoxP1 ZIP-lin-FKH (leucine zipper, linker and Forkhead domain, residues 342-548), unlabeled wild type (human) (UniProt Q9H334). Kind of data set: SEC; Superdex 75 increase, 20 mM HEPES pH 7.8, 150 mM NaCl; unlabeled protein at 10 µM; molecular weight from a calibration curve with known proteins.
The target in data set [6] is FoxP1 ZIP(A356C)-lin-FKH labeled with BODIPY FL (human) (UniProt Q9H334). Kind of data set: fluorescence polarisation; fluorescence anisotropy; 5 nM BODIPY FL-labeled single-cysteine protein titrated with its unlabeled wild-type construct (0-5000 nM ZIP-lin, 0-200 nM ZIP-lin-FKH), 37 °C; two-state model, monomer-dimer equilibrium; duplicates.
For data set [7] the target is unchanged. As to the kind of experiment: fluorescence polarisation; fluorescence anisotropy; 5 nM labeled monomer preincubated with 10 nM unlabeled DNA, then titrated with unlabeled wild-type ZIP-lin-FKH that was previously denatured to ensure the monomeric form; apparent KD; monomer-dimer equilibrium.

The values below come from publication PMC10188207.

Turning to FoxP1 FKH cognate DNA, Alexa488-labeled, the Kd turned out to be 176 nM in data set [1] and 170 nM in data set [2].
Substance “FoxP1 ZIP-lin (leucine zipper domain with the linker, residues 342-462), unlabeled wild type (from UniProt Q9H334 342-462) (domain or fragment)” had a stoichiometry N in data set [3] of 2. Further, in data set [4], the Kd came to 123 nM.
As to “FoxP1 ZIP-lin-FKH (leucine zipper, linker and Forkhead domain, residues 342-548), unlabeled wild type (from UniProt Q9H334 342-548) (domain or fragment)”, the stoichiometry N in data set [5] came to 2. Also, the figures for the Kd in data set [6] and in data set [7] were 29 nM and 55 nM, respectively.
